B1: target 1 insC 3' of 13,insG 3' of 7 (mixed)
RNA 1: CACCCGUGCAAAAAUGCAGGGGUCUAAAACUGAGCGGAUAACCUCUCUAUGG
RNA 2: GGGAAUGGAUCCACAUCUACGAAUUCGUACCAUAGAGAGCGUUAUCGCGCUCACCGAGAUCGGAAGAGCACACGU
B2: target 1 insC 3' of 18,insA 3' of 13 (mixed)
RNA 1: CACCCGUGCAAAAAUGCAGGGGUCUAAAACUGAGCGGAUAACCUCUCUAUGG
RNA 2: GGGAAUGGAUCCACAUCUACGAAUUCGUACCAUACGAGAGAGUUAUCCGCUCACCGAGAUCGGAAGAGCACACGU
B3: target 1 C2U,U19A (mixed)
RNA 1: CACCCGUGCAAAAAUGCAGGGGUCUAAAACUGAGCGGAUAACCUCUCUAUGG
RNA 2: GGGAAUGGAUCCACAUCUACGAAUUCGUACCAAAGAGAGGUUAUCCGCUUACCGAGAUCGGAAGAGCACACGU
B4: target 1 A16C,A18U (mixed)
RNA 1: CACCCGUGCAAAAAUGCAGGGGUCUAAAACUGAGCGGAUAACCUCUCUAUGG
RNA 2: GGGAAUGGAUCCACAUCUACGAAUUCGUACCAUUGCGAGGUUAUCCGCUCACCGAGAUCGGAAGAGCACACGU
B5: target 1 insA 3' of 22,insA 3' of 12 (mixed)
RNA 1: CACCCGUGCAAAAAUGCAGGGGUCUAAAACUGAGCGGAUAACCUCUCUAUGG
RNA 2: GGGAAUGGAUCCACAUCUACGAAUUCGUACACAUAGAGAGGAUUAUCCGCUCACCGAGAUCGGAAGAGCACACGU
B6: target 1 U10A,C22G (mixed)
RNA 1: CACCCGUGCAAAAAUGCAGGGGUCUAAAACUGAGCGGAUAACCUCUCUAUGG
RNA 2: GGGAAUGGAUCCACAUCUACGAAUUCGUAGCAUAGAGAGGUAAUCCGCUCACCGAGAUCGGAAGAGCACACGU
B7: target 1 insC 3' of 11,insA 3' of 7 (mixed)
RNA 1: CACCCGUGCAAAAAUGCAGGGGUCUAAAACUGAGCGGAUAACCUCUCUAUGG
RNA 2: GGGAAUGGAUCCACAUCUACGAAUUCGUACCAUAGAGAGGUCUAUCACGCUCACCGAGAUCGGAAGAGCACACGU
B8: target 1 C4G,A16G (mixed)
RNA 1: CACCCGUGCAAAAAUGCAGGGGUCUAAAACUGAGCGGAUAACCUCUCUAUGG
RNA 2: GGGAAUGGAUCCACAUCUACGAAUUCGUACCAUAGGGAGGUUAUCCGGUCACCGAGAUCGGAAGAGCACACGU
B9: target 1 C6G,U10G (mixed)
RNA 1: CACCCGUGCAAAAAUGCAGGGGUCUAAAACUGAGCGGAUAACCUCUCUAUGG
RNA 2: GGGAAUGGAUCCACAUCUACGAAUUCGUACCAUAGAGAGGUGAUCGGCUCACCGAGAUCGGAAGAGCACACGU
B10: target 1 U19C (mixed)
RNA 1: CACCCGUGCAAAAAUGCAGGGGUCUAAAACUGAGCGGAUAACCUCUCUAUGG
RNA 2: GGGAAUGGAUCCACAUCUACGAAUUCGUACCACAGAGAGGUUAUCCGCUCACCGAGAUCGGAAGAGCACACGU
B11: target 1 U8C,A20C (mixed)
RNA 1: CACCCGUGCAAAAAUGCAGGGGUCUAAAACUGAGCGGAUAACCUCUCUAUGG
RNA 2: GGGAAUGGAUCCACAUCUACGAAUUCGUACCCUAGAGAGGUUACCCGCUCACCGAGAUCGGAAGAGCACACGU
B12: target 1 insC 3' of 1,insU 3' of 1 (mixed)
RNA 1: CACCCGUGCAAAAAUGCAGGGGUCUAAAACUGAGCGGAUAACCUCUCUAUGG
RNA 2: GGGAAUGGAUCCACAUCUACGAAUUCGUACCAUAGAGAGGUUAUCCGCUCACUCCGAGAUCGGAAGAGCACACGU
B13: target 1 A1C (mixed)
RNA 1: CACCCGUGCAAAAAUGCAGGGGUCUAAAACUGAGCGGAUAACCUCUCUAUGG
RNA 2: GGGAAUGGAUCCACAUCUACGAAUUCGUACCAUAGAGAGGUUAUCCGCUCCCCGAGAUCGGAAGAGCACACGU
B14: target 1 MT (mixed)
RNA 1: CACCCGUGCAAAAAUGCAGGGGUCUAAAACUGAGCGGAUAACCUCUCUAUGG
RNA 2: GGGAAUGGAUCCACAUCUACGAAUUCGUACCAUAGAGAGGUUAUCCGCUCACCGAGAUCGGAAGAGCACACGU
B15: target 1 C7A,U8G (mixed)
RNA 1: CACCCGUGCAAAAAUGCAGGGGUCUAAAACUGAGCGGAUAACCUCUCUAUGG
RNA 2: GGGAAUGGAUCCACAUCUACGAAUUCGUACCAUAGAGAGGUUAGACGCUCACCGAGAUCGGAAGAGCACACGU
B16: target 1 C6A,A18C (mixed)
RNA 1: CACCCGUGCAAAAAUGCAGGGGUCUAAAACUGAGCGGAUAACCUCUCUAUGG
RNA 2: GGGAAUGGAUCCACAUCUACGAAUUCGUACCAUCGAGAGGUUAUCAGCUCACCGAGAUCGGAAGAGCACACGU
B17: target 1 insC 3' of 1,insG 3' of 1 (mixed)
RNA 1: CACCCGUGCAAAAAUGCAGGGGUCUAAAACUGAGCGGAUAACCUCUCUAUGG
RNA 2: GGGAAUGGAUCCACAUCUACGAAUUCGUACCAUAGAGAGGUUAUCCGCUCACGCCGAGAUCGGAAGAGCACACGU
B18: target 1 A1U (mixed)
RNA 1: CACCCGUGCAAAAAUGCAGGGGUCUAAAACUGAGCGGAUAACCUCUCUAUGG
RNA 2: GGGAAUGGAUCCACAUCUACGAAUUCGUACCAUAGAGAGGUUAUCCGCUCUCCGAGAUCGGAAGAGCACACGU
B19: target 1 insC 3' of 20,insU 3' of 13 (mixed)
RNA 1: CACCCGUGCAAAAAUGCAGGGGUCUAAAACUGAGCGGAUAACCUCUCUAUGG
RNA 2: GGGAAUGGAUCCACAUCUACGAAUUCGUACCACUAGAGAGUGUUAUCCGCUCACCGAGAUCGGAAGAGCACACGU
B20: target 1 insC 3' of 3,insA 3' of 3 (mixed)
RNA 1: CACCCGUGCAAAAAUGCAGGGGUCUAAAACUGAGCGGAUAACCUCUCUAUGG
RNA 2: GGGAAUGGAUCCACAUCUACGAAUUCGUACCAUAGAGAGGUUAUCCGCUCACACCGAGAUCGGAAGAGCACACGU
B21: target 1 insU 3' of 4,insG 3' of 3 (mixed)
RNA 1: CACCCGUGCAAAAAUGCAGGGGUCUAAAACUGAGCGGAUAACCUCUCUAUGG
RNA 2: GGGAAUGGAUCCACAUCUACGAAUUCGUACCAUAGAGAGGUUAUCCGCUUGCACCGAGAUCGGAAGAGCACACGU
B22: target 1 insC 3' of 11,insA 3' of 2 (mixed)
RNA 1: CACCCGUGCAAAAAUGCAGGGGUCUAAAACUGAGCGGAUAACCUCUCUAUGG
RNA 2: GGGAAUGGAUCCACAUCUACGAAUUCGUACCAUAGAGAGGUCUAUCCGCUCAACCGAGAUCGGAAGAGCACACGU
B23: target 1 U11C,A18U (mixed)
RNA 1: CACCCGUGCAAAAAUGCAGGGGUCUAAAACUGAGCGGAUAACCUCUCUAUGG
RNA 2: GGGAAUGGAUCCACAUCUACGAAUUCGUACCAUUGAGAGGCUAUCCGCUCACCGAGAUCGGAAGAGCACACGU
B24: target 1 A1G,U19C (mixed)
RNA 1: CACCCGUGCAAAAAUGCAGGGGUCUAAAACUGAGCGGAUAACCUCUCUAUGG
RNA 2: GGGAAUGGAUCCACAUCUACGAAUUCGUACCACAGAGAGGUUAUCCGCUCGCCGAGAUCGGAAGAGCACACGU
B25: target 1 A1C,A9C (mixed)
RNA 1: CACCCGUGCAAAAAUGCAGGGGUCUAAAACUGAGCGGAUAACCUCUCUAUGG
RNA 2: GGGAAUGGAUCCACAUCUACGAAUUCGUACCAUAGAGAGGUUCUCCGCUCCCCGAGAUCGGAAGAGCACACGU
B26: target 1 A9C (mixed)
RNA 1: CACCCGUGCAAAAAUGCAGGGGUCUAAAACUGAGCGGAUAACCUCUCUAUGG
RNA 2: GGGAAUGGAUCCACAUCUACGAAUUCGUACCAUAGAGAGGUUCUCCGCUCACCGAGAUCGGAAGAGCACACGU
B27: target 1 insC 3' of 17,insU 3' of 16 (mixed)
RNA 1: CACCCGUGCAAAAAUGCAGGGGUCUAAAACUGAGCGGAUAACCUCUCUAUGG
RNA 2: GGGAAUGGAUCCACAUCUACGAAUUCGUACCAUAGCAUGAGGUUAUCCGCUCACCGAGAUCGGAAGAGCACACGU
B28: target 1 A1G (mixed)
RNA 1: CACCCGUGCAAAAAUGCAGGGGUCUAAAACUGAGCGGAUAACCUCUCUAUGG
RNA 2: GGGAAUGGAUCCACAUCUACGAAUUCGUACCAUAGAGAGGUUAUCCGCUCGCCGAGAUCGGAAGAGCACACGU

Biological target: T1, EsCas13d, nuclease-dead (Eubacterium siraeum, UniProt B0MS50, R295A;H300A;R849A;H854A)
T1 sequence: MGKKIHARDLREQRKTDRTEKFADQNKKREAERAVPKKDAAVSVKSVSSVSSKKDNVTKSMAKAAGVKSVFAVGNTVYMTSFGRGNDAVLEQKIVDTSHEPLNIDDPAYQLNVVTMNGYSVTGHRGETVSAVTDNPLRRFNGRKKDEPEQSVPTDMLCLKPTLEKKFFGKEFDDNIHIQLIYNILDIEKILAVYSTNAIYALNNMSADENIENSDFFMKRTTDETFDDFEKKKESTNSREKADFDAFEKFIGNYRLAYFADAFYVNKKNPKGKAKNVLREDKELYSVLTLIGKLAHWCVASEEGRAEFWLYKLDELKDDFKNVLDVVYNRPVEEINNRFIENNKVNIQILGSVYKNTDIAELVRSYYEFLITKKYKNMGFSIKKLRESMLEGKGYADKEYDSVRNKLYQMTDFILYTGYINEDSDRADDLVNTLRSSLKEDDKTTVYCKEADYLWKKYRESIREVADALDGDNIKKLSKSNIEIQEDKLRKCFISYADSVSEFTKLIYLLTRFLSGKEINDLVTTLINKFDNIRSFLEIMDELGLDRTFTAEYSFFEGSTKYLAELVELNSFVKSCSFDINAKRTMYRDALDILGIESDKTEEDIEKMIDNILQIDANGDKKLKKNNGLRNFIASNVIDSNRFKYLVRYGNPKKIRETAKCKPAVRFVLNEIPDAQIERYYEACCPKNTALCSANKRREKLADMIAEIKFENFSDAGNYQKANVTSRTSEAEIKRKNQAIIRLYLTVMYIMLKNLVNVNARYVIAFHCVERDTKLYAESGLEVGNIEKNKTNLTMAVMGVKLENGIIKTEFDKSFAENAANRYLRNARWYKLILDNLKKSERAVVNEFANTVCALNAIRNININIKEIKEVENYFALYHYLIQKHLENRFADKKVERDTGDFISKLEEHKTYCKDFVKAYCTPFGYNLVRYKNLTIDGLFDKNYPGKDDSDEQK
Assay: crRNA (strand 1, pre-loaded); Mg2+; 40 mM Tris-HCl pH 7.5, 150 mM NaCl, 6 mM MgCl2, 1 mM DTT, 0.1% Tween-20, 0.2 mg/ml BSA; 25 C; 10 min per concentration, then washed
Conditions: tags: His6-TwinStrep-SUMO cleaved; N-terminal SNAP kept (SNAP-Surface 488); label: 3' end held by stalled T7 RNA polymerase

| Binder | Kd [nM] |
| --- | --- |
| B1 | 16.1 ± 1 |
| B2 | 24.4 ± 1.9 |
| B3 | 26.5 ± 2.9 |
| B4 | 89 ± 11 |
| B5 | 47 ± 8 |
| B6 | 76 ± 25 |
| B7 | 25.7 ± 1.5 |
| B8 | 16.3 ± 3.2 |
| B9 | 15.2 ± 0.9 |
| B10 | 21 ± 1.3 |
| B11 | 65 ± 7 |
| B12 | 10 ± 0.4 |
| B13 | 24 ± 4 |
| B14 | 8.62 ± 0.06 |
| B15 | 9.8 ± 1.1 |
| B16 | 54 ± 4 |
| B17 | 9 ± 0.7 |
| B18 | 8.5 ± 0.6 |
| B19 | 6.9 ± 0.7 |
| B20 | 9.8 ± 0.5 |
| B21 | 7.77 ± 0.31 |
| B22 | 38 ± 4 |
| B23 | 45 ± 6 |
| B24 | 35 ± 5 |
| B25 | 22.5 ± 3 |
| B26 | 15 ± 0.7 |
| B27 | 40 ± 6 |
| B28 | 8.6 ± 0.7 |
